Results on 2 molecules are retold here after paper PMC11019930, “DnaK duplication and specialization in bacteria correlates with increased proteome complexity” (mSystems, 2024).

As usually defined, the stoichiometry N is a count of units in the complex or per binding partner.

Series [1] has as its target N2β1α1C1, recombinant purified (the MxDnaK1 chimera with the MxDnaK2 NBD) (Myxococcus xanthus DK1622). Description: SDS-PAGE of the purified protein (monomer and dimer bands); purified MxDnaKs and chimeras on SDS-PAGE, without DTT treatment; monomer (1×) and dimer (2×) bands.
Series [2] concerns the molecule itself. The description is as above.

As to “N2β1α1C1, recombinant purified (the MxDnaK1 chimera with the MxDnaK2 NBD)”, the oligomer state on SDS-PAGE (subunits per band) in series [1] is 2.

B1: His6-MxDnaK2 (natural protein, Myxococcus xanthus DK1622, UniProt P95334 1-607, looked up)
chain: MGKVIGIDLGTTNSCVAVMEGGEPVVIPNSEGSRTTPSMVGFTDSGERLVGQIAKRQAITNPENTVFAAKRLIGRKFDSPEGKKAIGVSPFKVASSPNGDAWVEIRGKGYSPPEVSAIVLMKMKQTAEDYLGEQVSEAVITVPAYFNDSQRQATKDAGRIAGLSVLRIINEPTAAALAYGLDKVQDGGTERIAVYDLGGGTFDISILELNAGVFEVKSTNGDTFLGGEDFDQRLIDYLAKRFAESNNGLDLRKDRMALQRLKEAAERAKHELSSAPETEVNLPFITADASGPKHLTETVDRATFEALVTDLIDRTIEPCRIALKDAGIPAQQINQVLLVGGMTRMPRVQQKVKEFFGREPHKGINPDEVVAVGAAIQGGVLKGEVKDVLLLDVTPLSLGVETAGGVFTKIIDKNTTIPCKKSQVFSTAVDNQPLVSVHVLQGEREMAADNKTLARFELVGIPPAPRGVPQIEVSFDIDANGIVHVSAKDLGTGKVQQVRVVSNSGLSEAEIQAMISDAQSHASDDKKKKELAELRNNADGLIYTTEKSLEEYASLLSEKDREEIKADLERLKEVLNTSDAAVLKESFQRLEGSAYRIADAIYTGQAS
notes: MxDnaK2 (MXAN_6671) of Myxococcus xanthus DK1622; the gene was amplified from genomic DNA and cloned into pET28a; His6-MxDnaK2 printed as 65.3 kDa; also called MxDnaK2, recombinant purified; source: E. coli BL21 (DE3), purified (Ni-NTA); not shown: His6, N-terminal, kept
Turning to B1, the “stoichiometry N” value in series [2] came to 2.
